Measured values reported in the supplement of paper PMC7125110.
± gives the standard error. For part of these data: Variants at the floor of the assay were thinned out.

B1: glmS ribozyme (parent)
chain: AUAAAAGCGCCAGAACUACAGAAAUGUAGUUGACGAGGAGGAGGUUUAUCGAAUUUUCGGCGGAUGCCUCCAAA

Experiments:
Conditions in all cases: with glucosamine-6-phosphate
glucosamine-6-phosphate [1] = variants of: B1; experiment: kcat; higher = faster cleavage; RNA array
Summary of the method: (§1)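 Glucosamine-6-phosphate in HEPES/KCl/Mg(OAc)2 buffer, at 40 μM to 10 mM, was flowed over barcoded ribozyme variants transcribed in situ by E. coli RNA polymerase on sequenced MiSeq chips. Tracking was through a hybridised Cy3 probe at 37 °C. kobs, kcat and KM came from exponential decay fits and weighted Michaelis–Menten fits of normalised per-tile medians.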

glucosamine-6-phosphate [2] = variants of: B1; experiment: self-cleavage kobs at 640 uM GlcN6P; higher = faster cleavage; RNA array
Summary of the method: as §1

glucosamine-6-phosphate [3] = variants of: B1; experiment: self-cleavage kobs at 2500 uM GlcN6P; higher = faster cleavage; RNA array
Summary of the method: as §1

glucosamine-6-phosphate [4] = variants of: B1; experiment: self-cleavage kobs at 10000 uM GlcN6P; higher = faster cleavage; RNA array
Summary of the method: as §1

glucosamine-6-phosphate [5] = variants of: B1; experiment: KM; higher = weaker cofactor use; RNA array
Summary of the method: as §1

glucosamine-6-phosphate [6] = variants of: B1; experiment: self-cleavage kobs at 40 uM GlcN6P; higher = faster cleavage; RNA array
Summary of the method: as §1

glucosamine-6-phosphate [7] = variants of: B1; experiment: self-cleavage kobs at 160 uM GlcN6P; higher = faster cleavage; RNA array
Summary of the method: as §1

| Variant | kcat (glucosamine-6-phosphate [1]) [s⁻¹] | self-cleavage kobs at 640 uM GlcN6P (glucosamine-6-phosphate [2]) [s⁻¹] | self-cleavage kobs at 2500 uM GlcN6P (glucosamine-6-phosphate [3]) [s⁻¹] | self-cleavage kobs at 10000 uM GlcN6P (glucosamine-6-phosphate [4]) [s⁻¹] | KM (glucosamine-6-phosphate [5]) [µM] | self-cleavage kobs at 40 uM GlcN6P (glucosamine-6-phosphate [6]) [s⁻¹] | self-cleavage kobs at 160 uM GlcN6P (glucosamine-6-phosphate [7]) [s⁻¹] |
| --- | --- | --- | --- | --- | --- | --- | --- |
| U31C G41A | 9.11e-05 ± 9.7e-06 | 6.76e-05 ± 1.5e-05 | 9.23e-05 ± 1.6e-05 | 8.13e-05 ± 1.2e-05 |  |  |  |
| U30A U31C | 0.00588 ± 0.00051 | 0.000754 ± 0.00011 | 0.00197 ± 0.00041 | 0.00423 ± 0.0006 | 4300 ± 500 | 5.91e-05 ± 1.1e-05 | 0.000203 ± 4.9e-05 |
| G29U G59C | < 1e-05 |  | < 1e-05 | < 1e-05 |  | < 1e-05 |  |
| G29U A52G | 0.00036 ± 7.1e-05 | 6.73e-05 ± 9.7e-06 | 0.000127 ± 2e-05 | 0.00029 ± 3.3e-05 | 3340 ± 1200 |  |  |
| A15G A33C | 0.000368 ± 3.1e-05 | 8.06e-05 ± 9.8e-06 | 0.000213 ± 3e-05 | 0.00029 ± 4.2e-05 | 2210 ± 330 |  |  |
| A15G A33U | 0.0001 ± 9.2e-06 |  | 5.25e-05 ± 7e-06 | 7.91e-05 ± 6.4e-06 | 2530 ± 740 | < 1e-05 |  |
| U31A U56C | 0.00331 ± 0.0008 | 0.00066 ± 0.00012 | 0.00115 ± 0.00025 | 0.00299 ± 0.00037 | 2630 ± 990 | 6.48e-05 ± 1.3e-05 | 0.000186 ± 4.2e-05 |
| C16G C67A | 0.00104 ± 0.00042 | 0.000169 ± 6.1e-05 | 0.000618 ± 0.00021 | 0.000956 ± 0.00019 |  | 3.35e-05 ± 7e-06 |  |
| C16A A64G | 0.00134 ± 0.00022 | 0.000277 ± 3.5e-05 | 0.000757 ± 7.7e-05 | 0.00113 ± 0.00015 | 2060 ± 520 | 3.87e-05 ± 8.2e-06 | 9.99e-05 ± 1.3e-05 |
| C16U G29A | 0.0165 ± 0.0058 | 0.0124 ± 0.0019 | 0.0121 ± 0.0031 | 0.0147 ± 0.0029 |  | 0.00117 ± 0.00016 | 0.00189 ± 0.00052 |
| A15U | 0.0104 ± 0.0019 | 0.00245 ± 8.9e-05 | 0.00682 ± 0.00026 | 0.00847 ± 0.00024 | 1950 ± 440 | 0.000227 ± 4e-06 | 0.00061 ± 2.2e-05 |
| C16A U46G C70G | 2.12e-05 ± 3.1e-06 |  |  |  |  |  |  |
| G29A G41C | 3.14e-05 ± 5.6e-06 |  | 2.97e-05 ± 1.2e-05 |  |  |  |  |
| U31A A33U | 2.01e-05 ± 3.8e-06 |  |  |  |  | < 1e-05 |  |
| U30G G32C | 0.000158 ± 2.5e-05 |  | 0.000149 ± 3e-05 | 0.000134 ± 1.6e-05 |  |  |  |
| U31A U69G | 5.26e-05 ± 7e-06 | 6.47e-05 ± 1.5e-05 | 5.62e-05 ± 1.2e-05 | 4.26e-05 ± 9.9e-06 |  |  | 4.7e-05 ± 1.3e-05 |
